One protein from publication PMC5460178 (NPJ Biofilms and Microbiomes, 2017) can be followed below.

The data set deals with the molecule itself. Kind of data set: SEC. (In general: SEC sorts molecules by how far they enter the pores of the column.)

B1: GroEL-P (His6-GroEL of B. anthracis co-expressed with PrkCc in E. coli, phosphorylated) (natural protein)
chain: MAKDIKFSEEARRSMLRGVDTLANAVKVTLGPKGRNVVLEKKFGSPLITNDGVTIAKEIELEDAFENMGAKLVAEVASKTNDVAGDGTTTATVLAQAMIREGLKNVTAGANPMGLRKGIEKAVVAAVEELKTISKPIEGKSSIAQVAAISAADEEVGQLIAEAMERVGNDGVITLEESKGFTTELDVVEGMQFDRGYASPYMITDSDKMEAVLDNPYILITDKKISNIQEILPVLEQVVQQGKPLLIIAEDVEGEALATLVVNKLRGTFNVVAVKAPGFGDRRKAMLEDIAILTGGEVITEELGRDLKSATVESLGRAGKVVVTKENTTVVEGVGSTEQIEARIGQIRAQLEETTSEFDREKLQERLAKLVGGVAVIKVGAATETELKERKLRIEDALNSTRAAVEEGIVAGGGTSLMNVYTKVASIVAEGDEATGINIVLRALEEPVRQIAINAGLEGSVVVERLKGEKVGVGFNAATGEWVNMLETGIVDPAKVTRSALQNAASVAAMFLTTEAVVADKPEPNAPAMPDMGGMGMGGMGGMM
With B1, the stoichiometry N (usually the number of molecules, sites or subunits per partner or assembly) was determined as 14.
